Test system: MS2 coat protein
Assay: apparent KD of MS2 coat protein; designed switch direction (-1 OFF switch, 1 ON switch): -1; higher = weaker reporter binding
Outline: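 Designed RNA switches were transcribed on Illumina chips by stalled E. coli RNA polymerase and titrated with SNAP-549-labelled MS2 coat protein from 0.7 or 1.5 nM, doubling to 3 µM. Step length ran from 0.8–1.5 h at the lowest concentration to 10–20 min at the highest. The apparent KD is the median over clusters for each design, from curve-fitted normalised cluster fluorescence.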

[1] = Eterna round: R95, input ligand: microRNA oligo, concentration not stated
[2] = input ligand: microRNA oligo, concentration not stated
[3] = Eterna round: R95, input ligand: FMN 200 uM
[4] = Eterna round: R95, input ligand: none

Sequence	apparent KD of MS2 coat protein [1]	apparent KD of MS2 coat protein [2]	apparent KD of MS2 coat protein (input ligand: FMN 200 uM)	apparent KD of MS2 coat protein (input ligand: none)	apparent KD of MS2 coat protein [3]	apparent KD of MS2 coat protein [4]
UUUUACGGAGGAUAUACAUUUUUUUUAUUAUCCUCAUUAUUACAUGAGGAUCACCCAUGUAGAAGGCCGAUUUU [My Design] (puzzle: Exclusion 2)	0.0591 µM					
UAAUAAUAGCAAGGAUAUGAUUAUUAUAAUAUAUCAGAAGGUGCACAUGAGGAUCACCCAUGUUUUAUAAUUUGUAAUUUAAAU [2nd something] (Eterna round: R96, puzzle: Exclusion NG 1)		0.0404 µM				
UUGUCGUGUGUAGGAUAUCGUUGGCGUUCGCCGCGAGAAGGACAUGAGGAUCACCCAUGUGCGUCAGGGUCGUCCACAGGUGAU [-27/-25 Kcal and A 19%] (Eterna round: R96, puzzle: Exclusion NG 1)		0.281 µM	0.663 µM	0.371 µM		
GUGUACGUAGGAUAUGCUGGAAUCUAGCGAAGCUAGGUUCCACAUGAGGAUCACCCAUGUAGAAGGGCGUACAC [Dot plot directed A v9] (puzzle: Exclusion 2)	0.132 µM					
UGAUCUAGCGGAGGAUAUACAUGAGGAUCACCCAUGUAGACUCCAUGACCGUAGUCGUGGAGUGUGUAGAAGGCCGCUAGAUCU [JL ENG2 3.73] (Eterna round: R96, puzzle: Exclusion NG 2)		0.00933 µM	0.0152 µM	0.012 µM		
GGUUGGCGAGGAUAUACAUGAGGAUCACCCAUGUGAGAGAAAAAAGUGAGGAACAAAAGUAGAAGGCGCUGACG [salish99_ex3_r3_033] (puzzle: Exclusion 3)	0.0485 µM				0.183 µM	0.0583 µM
AUAAUUAGUUCAGGAUAUCAGCACGUGUAGUGCUGAGAAGGGAACAUGAGGAUCACCCAUGUGAUCAAUAUUAUAAUUUUAAUU [ENG1/12-B3] (Eterna round: R96, puzzle: Exclusion NG 1)		0.925 µM	0.42 µM	1.19 µM		
UUGUCGGCAGGAUAUACAUGAGGAUCACCCAUGUAAAUUUUUCGUUUAACUUGAAUGUGUAGAAGGGCCAUGUA [Ex3 #70] (Eterna round: R97, puzzle: Exclusion 3)			0.0282 µM	0.0252 µM		
CGGGAGGGACAAGCUGUUUGCACGUCUGGUAGUGAUGCAACAUGAGGAUCACCCAUGUAUAGGGUGUGAGAGGAUGG [JR_SV3TOV2_Sub050] (puzzle: Sensor v3, turn-off variant 2)	0.0896 µM				0.0471 µM	0.107 µM
UAGAUGUGAGGAUAUGGUAAAGAUAGAAUGAUGAAAGAACUCCAGAAGGCACAUGAGGAUCACCCAUGUAGAUG [Mat - Exclusion 4 - Mod of JL - D29] (puzzle: Exclusion 4)	0.0223 µM					
UUAAAUCAUGUAGGAUAUGCGUGGCGAAGCUAUGCAGAAGGACAUGAGGAUCACCCAUGUGCUUCCGUCUGAGAACAGACGGUA [Mat - Exclusion NG 1 - Mod of JL - D12] (Eterna round: R96, puzzle: Exclusion NG 1)		0.0639 µM	0.0918 µM	0.0931 µM		
CUUUUGUGAGGAUAUCAGUAGUAAUACAAUAGUAUUACUGCUGAGAAGGCACAUGAGGAUCACCCAUGUUCCUC [Ex4 344 Omei mod 10] (puzzle: Exclusion 4)	0.0536 µM					
UUAGAAUUGUUAGGAUAUUAAUUAUUGUAUAGUAUGAUCUACAUGAGGAUCACCCAUGUUAAAUAUAAGAAGGAACGUUAGAUU [JR_ExcNG2_Sub094] (Eterna round: R96, puzzle: Exclusion NG 2)		0.0423 µM				
AGUCCGUCAGGAUAUGCAAUUGUGGACAUGAGGAUCACCCAUGUAACGUGGGCUUGGUUUGUAGAAGGGACGUGCA [EX5 #91] (Eterna round: R97, puzzle: Exclusion 5)			0.351 µM	0.442 µM		
CUUGGAGAGGUAGGAUAUUUAUAUUCACACUCUGAUUCUUGUACACAUGAGGAUCACCCAUGUAUAGAGAAGGACUGCCAAGAG [Eternabot solution 48] (Eterna round: R96, puzzle: Exclusion NG 2)		0.0172 µM	0.0216 µM	0.0213 µM		
GAUUUAGAGCAGGAUAUCAUAGAAUUAUAUGAAUGAGAAGGGCUCACAUGAGGAUCACCCAUGUGGUCCUAGAU [JL Dibiri mod 22] (Eterna round: R96, puzzle: Exclusion 6)		0.0217 µM	0.235 µM	0.0254 µM		
GGUGGGCUAGGAUAUGCUUUGGGAAGGCAUUCCUUCGAUAAACUUGAGGAUCACCCAAGUAGAAGGAGCUUGCC [salish99_ex2_r4_021] (Eterna round: R97, puzzle: Exclusion 2)			0.0213 µM	0.0136 µM		

Sequence	apparent KD of MS2 coat protein [1]	apparent KD of MS2 coat protein [2]	apparent KD of MS2 coat protein (input ligand: FMN 200 uM)	apparent KD of MS2 coat protein (input ligand: none)	apparent KD of MS2 coat protein [3]	apparent KD of MS2 coat protein [4]
AACCUGAGGCUUUGCUUUAGGUGUACAUGAGGAUCACCCAUGUAGGAUAUGGUAGGCAAAGCUUACCAGAAGGACAUUGGCGUA [Mat - Exclusion NG 3 - Mod of JL - D40] (Eterna round: R96, puzzle: Exclusion NG 3)		0.0947 µM	0.342 µM	0.107 µM		
ACAAGCUUUUAGAUUUUCAACAUGAGGAUCACCCAUGUUCGUCUUGGGCUAGUGCGAGUGCGGUGUACUCGUAUUAG [JL TOV1 3.83 sellena mod] (Eterna round: R97, puzzle: Sensor, turn-off variant 1)			0.0232 µM	0.0234 µM		
GAUUAUGCGAGCUUUAGGGACAUGAGGAUCACCCAUGUUCGUCUUAUUAAUCUGGGUACGCUAACAUACCUAAAUCU [JMF 41] (puzzle: Sensor v3, turn-off variant 1)	0.0407 µM				0.0285 µM	0.0267 µM
UGCCGUAGAGGAUAUACAUUGAAUAAGAUUCAUGUAAAACUACAUGAGGAUCACCCAUGUAGAAGGCUAUGGCU [JL-ex2-4.37 Eli mod] (Eterna round: R97, puzzle: Exclusion 2)			0.0386 µM	0.0147 µM		
CAGUACUGAGGAUAUACAUGAGGAUCACCCAUGUGUUCCUGCUAGGAUACUAGCAAGGGUAGAAGGCAGUACUG [Mat - Exclusion 3 - Eli Mod - D4] (Eterna round: R97, puzzle: Exclusion 3)			0.0594 µM	0.0197 µM		
AGCUAGUGCCGAGGAUAUACAUGAGGAUCACCCAUGUAAGCCAGUCGGUUUCUGACUGGCAAGAUGUAGAAGGCGGCGUUGGCA [JL ENG2 1.50] (Eterna round: R96, puzzle: Exclusion NG 2)		0.00957 µM	0.0571 µM	0.0135 µM		
CUUUUGUGAGGAUAUUAGUAGUAAAUAAAUAAAAUUACUACUGAGAAGGCACAUGAGGAUCACCCAUGUUUCUC [salish99_ex4_r3_065] (Eterna round: R96, puzzle: Exclusion 4)		0.0312 µM	0.278 µM	0.0355 µM		
UGUUGGCGAGGAUAUACAUGAGGAUCACCCAUGUGAGAGAAAAAAGUGAGGAAGAAAAGUAGAAGGCGCUGACU [salish99_ex3_r3_044] (puzzle: Exclusion 3)	0.044 µM				0.254 µM	0.0518 µM
AAGAAGUGAGGAUAUCACCCUGCGCUACAGUUGCGCAGGCAUGAGAAGGCACUUGAGGAUCACCCAAGUCCUAU [Bitiri] (Eterna round: R97, puzzle: Exclusion 4)			0.212 µM	0.0236 µM		
AACAGCACAGGAUAUACAUGAGGAUCACCCAUGUGAGAAUUAAGUAGAUUGCCACAGAGUAGAAGGGUGCUGGA [Ruby 99] (Eterna round: R96, puzzle: Exclusion 3)		0.0364 µM	0.0889 µM	0.0389 µM		
AUAGAUCGUUAGGAUAUCCAGAUGACCCUCGUUGGAGAAGGAACGACAUGAGGAUCACCCAUGUUAUAGUACUU [Eternabot (L2) Solution 66] (Eterna round: R97, puzzle: Exclusion 6)			0.0169 µM	0.0185 µM		
AGCAGACGAGGAUAUAGAUUUAAGUACAUGAGGAUCACCCAUGUACAUAUGUAUUUAGAUUUAGAAGGCGUCUGCU [E5/16-A1] (Eterna round: R97, puzzle: Exclusion 5)			0.0277 µM	0.0286 µM		
GGCGAAGUAGGAUAUACAUGAGGAUCACCCAUGUAACCUAUAGGCGAAGAUCUUCUAUGUAGAAGGACUACGCU [jl-ex3-4.40 ViennaUCT mod] (Eterna round: R97, puzzle: Exclusion 3)			0.0153 µM	0.0153 µM		
ACAAUUAUGACAGGAUAUAGUUUUUGUUGGUCACUAGAAGGGUCUAUGCACAUGAGGAUCACCCAUGUUCUUUUUAUUUGCGAU [JR_ExcNG1_Sub017] (Eterna round: R96, puzzle: Exclusion NG 1)		0.0271 µM	0.0299 µM	0.0399 µM		
AAUAACAAGUGAGAUCCUAACAUGAGGAUCACCCAUGUGCUCGUCUUAUAAAGUACUAUCACGAAAGUGAUAGUACA [Sensor 3, v1 - 54] (puzzle: Sensor v3, turn-off variant 1)	0.00729 µM				0.117 µM	0.0706 µM
CAAUGCGGAGGAUAUACAUUUAUGACUGCCACAGUACCGAGACAUGAGGAUCACCCAUGUAGAAGGCCGAUUAA [EX2 B.9] (Eterna round: R97, puzzle: Exclusion 2)			0.0204 µM	0.0167 µM		
CACCGUAACUGAGGAUAUCAAACAUGAGGAUCACCCAUGUAAUAAAUGAGAAUUUCGAAUGUACCUGAGAAGGCAGAAACCGGC [Ostricism 84 - Jieux - Exclusion NG 2] (Eterna round: R96, puzzle: Exclusion NG 2)		0.0251 µM				
